The assay concerns the target CCR5 (UniProt P51681). Kind of assay: cell-based or functional assay.

Sequence of wild-type RANTES (P13501 24-91): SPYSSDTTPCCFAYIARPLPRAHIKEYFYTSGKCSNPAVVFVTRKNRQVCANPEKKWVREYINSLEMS

On to “RANTES mutant pVU5 (Ser 1 to Cys) (from UniProt P13501 24-91) (ligand)”, for which the relative antiviral activity (ID90 RANTES/ID90 mutant), MDM, HIV-1BaL (fold compared to wild-type RANTES) worked out at 0.25; the relative antiviral activity (ID90 RANTES/ID90 mutant), PBMC, HIV-1 6366 (fold compared to wild-type RANTES) came out at 0.23; the relative antiviral activity (ID90 RANTES/ID90 mutant), PBMC, HIV-1BaL (fold compared to wild-type RANTES) amounted to 0.24.

As to “RANTES mutant pVU22 (Tyr 14 to Phe) (from UniProt P13501 24-91) (ligand)”, the relative antiviral activity (ID90 RANTES/ID90 mutant), PBMC, HIV-1 6366 (fold compared to wild-type RANTES) amounted to 2.5 and the relative antiviral activity (ID90 RANTES/ID90 mutant), PBMC, HIV-1BaL (fold compared to wild-type RANTES) worked out at 10.

As to “RANTES mutant pVU15 (Ser 1 to Cys, Ser 5 to Cys) (from UniProt P13501 24-91) (ligand)”, the concentration giving the highest inhibition of wild-type RANTES activity (calcium mobilisation) stood at 500 ng/mL; the relative antiviral activity (ID90 RANTES/ID90 mutant), MDM, HIV-1BaL (fold compared to wild-type RANTES) is 4.5; the relative antiviral activity (ID90 RANTES/ID90 mutant), PBMC, HIV-1 6366 (fold compared to wild-type RANTES) is 3.3; the relative antiviral activity (ID90 RANTES/ID90 mutant), PBMC, HIV-1BaL (fold compared to wild-type RANTES) was found to be 3.07.

“RANTES mutant pVU14 (Tyr 3 to Ala) (from UniProt P13501 24-91) (ligand)”: the relative antiviral activity (ID90 RANTES/ID90 mutant), MDM, HIV-1BaL (fold compared to wild-type RANTES) came to 0.23; the relative antiviral activity (ID90 RANTES/ID90 mutant), PBMC, HIV-1 6366 (fold compared to wild-type RANTES) is 0.1; the relative antiviral activity (ID90 RANTES/ID90 mutant), PBMC, HIV-1BaL (fold compared to wild-type RANTES) amounted to 0.22.

Consider “RANTES mutant pVU38 (Asp 6 to Arg) (from UniProt P13501 24-91) (ligand)”, for which the relative antiviral activity (ID90 RANTES/ID90 mutant), PBMC, HIV-1 6366 (fold compared to wild-type RANTES) worked out at 0.13 and the relative antiviral activity (ID90 RANTES/ID90 mutant), PBMC, HIV-1BaL (fold compared to wild-type RANTES) worked out at 0.14.

Take “RANTES mutant pVU17 (additional N-terminal Leucine) (from UniProt P13501 24-91) (ligand)”: the relative antiviral activity (ID90 RANTES/ID90 mutant), MDM, HIV-1BaL (fold compared to wild-type RANTES) was found to be 11; the relative antiviral activity (ID90 RANTES/ID90 mutant), PBMC, HIV-1 6366 (fold compared to wild-type RANTES) is 1.9; the relative antiviral activity (ID90 RANTES/ID90 mutant), PBMC, HIV-1BaL (fold compared to wild-type RANTES) was found to be 4.6.

Regarding “wild-type RANTES (from UniProt P13501 24-91) (ligand)”, the ID90, inhibition of HIV-1BaL infection of PBMC (p24 antigen) was 0.096 µg/mL.

On to “RANTES mutant pVU24 (Arg 17 to Ala) (from UniProt P13501 24-91) (ligand)”, for which the relative antiviral activity (ID90 RANTES/ID90 mutant), PBMC, HIV-1 6366 (fold compared to wild-type RANTES) was determined as 1.3 and the relative antiviral activity (ID90 RANTES/ID90 mutant), PBMC, HIV-1BaL (fold compared to wild-type RANTES) turned out to be 1.09.

In the case of “RANTES mutant pVU26 (Arg 44 to Glu) (from UniProt P13501 24-91) (ligand)”, the relative antiviral activity (RANTES ID50/mutant ID50), PBMC, HIV-1BaL (fold compared to wild-type RANTES) turned out to be 3.16.

“RANTES mutant pVU43 (Lys 45 to Glu) (from UniProt P13501 24-91) (ligand)” registered a relative antiviral activity (RANTES ID50/mutant ID50), PBMC, HIV-1BaL (fold compared to wild-type RANTES) of 1.44.

Values taken from patent publication US7164000.
